Measured values taken from patent US12329841B2, “Odorant-binding protein compositions, methods and uses thereof” (Universidade do Minho, priority 2020, dated 2025).
Blank lines part the entries; values can stand above or below the molecule they belong to.

Key:
[1] = Fragrance release quantified by headspace GC-MS after adding sweat solution; conditions: for Odorific molecules released in response to human perspiration, compared with other fusion proteins based on porcine OBP: sweat pH 4.0-8.5
Protocol: In an embodiment, the release of fragrance was quantified by gas chromatography-mass spectrometry (GC-MS). Increased concentrations of fragrance were used in different vials and the fragrance in headspace quantified performing the calibration curve (area of peak vs fragrance concentration). The fragrance was incubated with the odorant-binding protein at 37° C. Sweat solution was added and the fragrance release determined after several periods of time (0.5-24 h) of perspiration exposition.

[2] = 1-AMA fluorescence binding assay in buffer; conditions: 50 mM Tris-HCl pH 7.5 buffer, 37° C., 1 μM protein, 1-AMA ligand, Ka from Kd=1/Ka, mean of 2 independent experiments
Protocol: (§1) In an embodiment, the pure odorant-binding protein was lyophilized and used in further procedures. To determine the affinity of the odorant-binding protein to odour molecules, 1-aminoanthracene (1-AMA) was used as an odour model molecule. Increased concentrations of fluorescent ligand model 1-aminoanthracene (1-AMA) were added to 1 μM of protein, and the formation of ligand/protein complex was quantified after 1 h at 37° C. by fluorescence emission at 481 nm (excitation at 295 nm).^30 Dissociation constant (Kd) was determined from a plot of fluorescence intensity versus concentration of ligand, obtained with a standard non-linear regression method, described in Malpeli et al. (1998).^31 The affinity behaviour of protein in presence of sweat solution was performed through a competitive fluorescence assay. Here, 1 μM of protein was mixed with 2 μM of 1-AMA and incubated at 37° C. for 1 h. After this period, increased volumes of sweat solution were added to the complex and incubated at same conditions.
(§2) In a further embodiment, fluorescence emission at 481 nm (excitation at 295 nm) was recorded and the dissociation constant (Kd) calculated. The association constant (Ka) was calculated by formula Kd=1/Ka.

[3] = Competitive fluorescence assay with sweat solution added to 1-AMA/protein complex; format: binding; conditions: 37° C.; for Ka in sweat (affinity/association constant): sweat solution (AATCC 15-2009, pH 4.0-8.5), 1 μM protein + 2 μM 1-AMA, mean of 2 independent experiments
Protocol: as §1
In an embodiment, the sweat solution was prepared as indicated in AATCC method 15-2009 “Colorfastness to Perspiration”. The pH of the prepared solution varied between 4.0 and 8.5. In accordance with its composition, the sweat solution is also regarded as electrolyte solution.
as §2

[4] = cited from earlier work
[5] = particularly in the presence of a ligand; cited from earlier work
[6] = listed as Native porcine OBP (OBP-I)

- Ka in buffer (affinity/association constant) [2]: 4 µM⁻¹
B1: OBP::GQ20::KP: Recombinant pig OBP fused with linker GQ 20× and KP peptide, SEQ ID NO. 21 (protein)
chain: QEPQPEQDPFELSGKWITSYIGSSDLEKIGENAPFQVFMRSIEFDDKESKVYLNFFSKENGICEEFSLIGTKQEGNTYDVNYAGNNKFVVSYASETALIISNINVDEEGDKTIMTGLLGKGTDIEDQDLEKFKEVTRENGIPEENIVNIIERDDCPAGQGQGQGQGQGQGQGQGQGQGQGQGQGQGQGQGQGQGQGQGGVCGPSPPCITT
modifications: OBP::GQ20::KP (recombinant protein)
- Odorific molecules released in response to human perspiration, compared with other fusion proteins based on porcine OBP [1]: > 6.8 ×
- More fragrance release in presence of sweat versus presence of buffer ([1]; sweat versus buffer): 6.8 ×
- Reduction of affinity on addition of sweat solution (Ka buffer vs Ka sweat) [3]: 6.8 ×
- Ka in sweat (affinity/association constant) [3]: 0.59 µM⁻¹

- Ka in buffer (affinity/association constant) [2]: 4.17 µM⁻¹
B2: OBP::GQ20::CBM: Recombinant pig OBP fused with spacer GQ20 and carbohydrate-binding module; comparative data, SEQ ID NO. 22 (protein)
chain: QEPQPEQDPFELSGKWITSYIGSSDLEKIGENAPFQVFMRSIEFDDKESKVYLNFFSKENGICEEFSLIGTKQEGNTYDVNYAGNNKFVVSYASETALIISNINVDEEGDKTIMTGLLGKGTDIEDQDLEKFKEVTRENGIPEENIVNIIERDDCPAGQGQGQGQGQGQGQGQGQGQGQGQGQGQGQGQGQGQGQGQASPIGEGTFDDGPEGWVAYGTDGPLDTSTGALCVAVPAGSAQYGVGVVLNGVAIEEGTTYTLRYTATASTDVTVRALVGQNGAPYGTVLDTSPALTSEPRQVTETFTASATYPATPAADDPEGQIAFQLGGFSADAWTLCLDDVALDSEVEL
modifications: OBP::GQ20::CBM (recombinant protein)
- Release of fragrance in presence of sweat, value reported in state of art (ref. 25) [4]: 1.3 ×
- Reduction of affinity on addition of sweat solution (Ka buffer vs Ka sweat) [3]: 1.3 ×
- Ka in sweat (affinity/association constant) [3]: 3.16 µM⁻¹

- Ka in buffer (affinity/association constant) [2]: 4 ± 0.03 µM⁻¹
- Ka in buffer (affinity/association constant) ([2]; listed as Native OBP-I): 4 ± 0.03 µM⁻¹
- Ka in buffer (affinity/association constant) [2, 6]: 4 ± 0.03 µM⁻¹
B3: OBP-I: Native porcine (pig) odorant-binding protein, PDB ID 1DZK, SEQ ID NO. 1 (protein, listed as Sus scrofa)
chain: QEPQPEQDPFELSGKWITSYIGSSDLEKIGENAPFQVFMRSIEFDDKESKVYLNFFSKENGICEEFSLIGTKQEGNTYDVNYAGNNKFVVSYASETALIISNINVDEEGDKTIMTGLLGKGTDIEDQDLEKFKEVTRENGIPEENIVNIIERDDCPA
modifications: Pig OBP (PDB ID 1DZK)
- Odorific molecules released in response to human perspiration, compared with other fusion proteins based on porcine OBP [1]: more than 20 ×
- Structure stable to thermal denaturation up to (FT-IR) [5]: up to 80 °C
- Reduction of affinity on addition of sweat solution (Ka buffer vs Ka sweat) [3]: 20 ×
- Ka in sweat (affinity/association constant) [3]: 0.2 µM⁻¹
- Ka in sweat (affinity/association constant) ([3]; listed as Native OBP-I): 0.2 ± 0.02 µM⁻¹
- Ka in sweat (affinity/association constant) [3, 6]: 0.2 ± 0.02 µM⁻¹
